Experimental data: the Immune Epitope Database (IEDB)
pKd: −log10 of the molar value.

Columns and labels:
Assay in all cases: IEDB peptide-MHC binding, purified MHC/competitive/radioactivity; filed as Kd, often an IC50 or EC50 that approximates it; ≥ and ≤ were set here for values at or beyond the usual limits of such assays
[1] = biological target: HLA-A*33:01
[2] = biological target: HLA-A*03:01
[3] = biological target: HLA-A*11:01
[4] = biological target: HLA-A*31:01
[5] = biological target: HLA-A*68:01
[6] = source organism: Vaccinia virus WR
[7] = source organism: Dengue virus 2 Jamaica/1409/1983
[8] = source organism: SARS coronavirus Tor2
[9] = source organism: Dengue virus 4 Philippines/H241/1956
[10] = source organism: Dengue virus 3 Martinique/1243/1999
[11] = source organism: Mammarenavirus brazilense
[12] = source organism: Lymphocytic choriomeningitis virus (strain Traub)
[13] = source organism: Dengue virus 1 Brazil/97-11/1997
[14] = source organism: Dengue virus 1 Singapore/S275/1990
[15] = source organism: Mammarenavirus guanaritoense
[16] = source organism: Mammarenavirus machupoense
[17] = source organism: Mammarenavirus whitewaterense
[18] = source organism: Vaccinia virus Copenhagen

Sequence | pKd [1, 6] | pKd [2, 6] | pKd [3, 6] | pKd [4, 6] | pKd [5, 6] | also measured
AALDGTFQRK | ≤ 4.15 | 7.31 | 8.09 | 5.37 | 5.08 | 
AIFTYTGGY | ≤ 4.11 | 6.54 | 6.55 | 5.15 | 5.08 | 
AISSRVDRY | ≤ 4.11 | 5.30 | 6.79 | 4.73 | 5.32 | 
AMAFHLTTR |  |  |  |  |  | pKd [2, 7]: 7.25; pKd [4, 7]: 8.80
ATAHSELAK |  |  |  |  |  | pKd [1, 8]: ≤ 4.11; pKd [2, 8]: 7.94; pKd [3, 8]: 8.27; pKd [4, 8]: 4.73; pKd [5, 8]: 7.72
DLIAMENLK | 6.23 | ≤ 4.47 | 5.87 | 4.71 | 7.79 | 
DLLNSMMNR | 8.39 | 5.66 | 4.83 | 7.37 | 7.44 | 
DSMDVLAEKK | 5.45 | 6.46 | 6.12 | 6.00 | 8.77 | 
EGVYRIMQR |  |  |  |  |  | pKd [5, 9]: 6.67
ETAKVIKLVK | ≤ 4.15 | 5.79 | 6.72 | 5.03 | 7.67 | 
ETNMITLLVK |  |  |  |  |  | pKd [3, 9]: 5.97
FLIGANYLGK |  |  |  |  |  | pKd [1, 8]: ≤ 4.47; pKd [2, 8]: 6.67; pKd [3, 8]: 6.27; pKd [4, 8]: 5.43; pKd [5, 8]: 7.29
FLLFLEITY | 5.14 | 4.98 | 4.80 | 6.80 | 5.72 | 
FMDEIDHESY | ≤ 4.36 | 4.80 | ≤ 4.44 | ≤ 4.66 | ≤ 4.23 | 
FTLNHVLALK | 5.77 | 7.97 | 8.10 | 6.87 | 8.34 | 
GALHLYFDK |  |  |  |  |  | pKd [1, 8]: 4.81; pKd [2, 8]: 6.31; pKd [3, 8]: 9.03; pKd [4, 8]: 6.84; pKd [5, 8]: 5.30
GLSLQDYCY | 5.06 | 5.51 | 6.44 | ≤ 4.42 | ≤ 4.53 | 
GLTSRATWAK |  |  |  |  |  | pKd [2, 7]: 7.28
GTDDEVIER | 5.93 | ≤ 4.20 | 6.43 | 5.65 | 6.20 | 
GTLGLECSPR |  |  |  |  |  | pKd [1, 10]: 7.63; pKd [5, 10]: 6.97
GVRFFFYTSK |  |  |  |  |  | pKd [1, 8]: 4.96; pKd [2, 8]: 7.05; pKd [3, 8]: 7.35; pKd [4, 8]: 6.31; pKd [5, 8]: 6.92
HIKVDHPDK | 6.53 | 5.29 | 5.25 | 6.80 | 5.71 | 

Sequence | pKd [1, 6] | pKd [2, 6] | pKd [3, 6] | pKd [4, 6] | pKd [5, 6] | also measured
IAQYKCVTIK | ≤ 4.62 | 7.54 | 6.11 | 5.23 | 5.23 | 
ILSDENYLLK | 4.84 | 7.24 | 7.54 | 4.77 | 5.60 | 
ISNITTATR |  |  |  |  |  | pKd [4, 9]: 7.14
ISYCRAFIY | 5.45 | 8.84 | 9.45 | 6.63 | 8.87 | 
IVNEHDIKY | ≤ 4.25 | 8.95 | 7.07 | ≤ 4.40 | 5.35 | 
IVQLPKRGVR | 4.90 | 4.80 | ≤ 4.59 | 5.91 | 4.72 | 
IVSSVNMISR |  |  |  |  |  | pKd [1, 7]: 7.05; pKd [5, 7]: 7.79
KAKWLTPFEK | ≤ 4.15 | 6.67 | 6.60 | 6.94 | 4.93 | 
KASTISWMMK | ≤ 4.30 | 7.35 | 8.26 | 7.06 | 6.87 | 
KCFEKFLEPK |  |  |  |  |  | pKd [1, 11]: ≤ 4.64; pKd [2, 11]: 5.90; pKd [3, 11]: 4.77; pKd [4, 11]: 5.99; pKd [5, 11]: 5.46
KCHDHYLCRH |  |  |  |  |  | pKd [1, 12]: ≤ 4.15; pKd [2, 12]: ≤ 4.61; pKd [3, 12]: ≤ 4.16; pKd [4, 12]: 5.02; pKd [5, 12]: ≤ 4.15
KIIHEWCCR |  |  |  |  |  | pKd [4, 13]: ≤ 4.23
KSGGLSSGFY | ≤ 4.15 | 5.59 | 5.28 | ≤ 4.15 | ≤ 4.15 | 
KSLVSAGSGK |  |  |  |  |  | pKd [2, 10]: 8.47
KSTELIRRVR | 5.71 | ≤ 4.15 | ≤ 4.69 | 7.82 | 6.05 | 
LIVSLCPTK | 5.84 | 5.08 | 6.97 | 4.85 | 7.12 | 
LLLFADINGK |  |  |  |  |  | pKd [1, 8]: 4.76; pKd [2, 8]: 6.87; pKd [3, 8]: 6.29; pKd [4, 8]: ≤ 4.62; pKd [5, 8]: 5.04
LMHPDFCKNR | 6.60 | 4.87 | ≤ 4.61 | 7.77 | 5.07 | 
LMTLMKGASK |  |  |  |  |  | pKd [2, 9]: 6.56
LQGPPGTGK |  |  |  |  |  | pKd [1, 8]: ≤ 4.11; pKd [2, 8]: 6.34; pKd [3, 8]: 7.40; pKd [4, 8]: 5.90; pKd [5, 8]: 4.96
LQMAGVEVR | 5.21 | 4.86 | 5.24 | 6.66 | 5.62 | 
LTLFVEECLR |  |  |  |  |  | pKd [1, 9]: 7.22; pKd [5, 9]: 7.25

Sequence | pKd [1, 6] | pKd [2, 6] | pKd [3, 6] | pKd [4, 6] | pKd [5, 6] | also measured
MKNKAWMVHR |  |  |  |  |  | pKd [4, 10]: 6.85
MLDTSEKYSK | ≤ 4.15 | 4.76 | 6.97 | ≤ 4.65 | 5.36 | 
MLVYCFLGY |  |  |  |  |  | pKd [1, 8]: 5.13; pKd [2, 8]: 6.87; pKd [3, 8]: 6.92; pKd [4, 8]: 6.04; pKd [5, 8]: 5.94
MSHLKVALYR | 7.18 | 6.22 | 7.00 | 8.65 | 7.51 | 
MSTYGWNLVR |  |  |  |  |  | pKd [5, 7]: 7.60
MVDVSMMSMY | ≤ 4.51 | 5.63 | 5.69 | ≤ 4.62 | 6.83 | 
NAILHNIYR | 8.74 | ≤ 4.44 | 5.87 | 8.29 | 9.25 | 
NIISRTRLY | 4.99 | 6.43 | 5.99 | 5.41 | 6.06 | 
NLKSLLLENK | 5.67 | 7.05 | 7.20 | 5.97 | 6.86 | 
NMKPNFWSR | 8.97 | ≤ 4.11 | ≤ 4.46 | 9.46 | 6.68 | 
NMLNIMNRR |  |  |  |  |  | pKd [1, 14]: 7.88; pKd [4, 14]: 5.27
NVKHTSVSAK | 5.08 | 6.28 | 5.47 | 4.99 | 6.30 | 
QFNQMMNPSH |  |  |  |  |  | pKd [1, 11]: ≤ 4.15; pKd [2, 11]: ≤ 4.15; pKd [3, 11]: ≤ 4.16; pKd [4, 11]: ≤ 4.69; pKd [5, 11]: ≤ 4.15
QLLMPLKAPK |  |  |  |  |  | pKd [1, 8]: 5.64; pKd [2, 8]: 7.00; pKd [3, 8]: 6.84; pKd [4, 8]: 6.87; pKd [5, 8]: 5.82
QMRTPLHKY | ≤ 4.11 | 6.85 | 5.75 | 5.11 | ≤ 4.11 | 
QTMLFTMLR |  |  |  |  |  | pKd [1, 8]: 8.91; pKd [2, 8]: 7.36; pKd [3, 8]: 8.74; pKd [4, 8]: 9.79; pKd [5, 8]: 8.58
QTVNICIFY | 4.98 | 6.08 | 7.40 | 6.08 | 8.71 | 
RIMQRGLLGR |  |  |  |  |  | pKd [2, 14]: 8.25; pKd [4, 14]: 8.94
RNKKPRICTR |  |  |  |  |  | pKd [4, 13]: ≤ 4.15
RSIAMLKSK | ≤ 4.11 | 6.67 | 8.51 | 5.82 | 6.20 | 
RSKIEVGIRH |  |  |  |  |  | pKd [1, 15]: ≤ 4.15; pKd [2, 15]: 4.86; pKd [3, 15]: ≤ 4.54; pKd [4, 15]: 5.79; pKd [5, 15]: ≤ 4.65
RTELGVEFLK |  |  |  |  |  | pKd [1, 8]: 4.80; pKd [2, 8]: 6.02; pKd [3, 8]: 7.28; pKd [4, 8]: 5.87; pKd [5, 8]: 5.01

Sequence | pKd [1, 6] | pKd [2, 6] | pKd [3, 6] | pKd [4, 6] | pKd [5, 6] | also measured
SFIISTLNK | 5.09 | 7.24 | 8.27 | 8.29 | 8.00 | 
SLFYTFAISY | ≤ 4.50 | 8.44 | 8.04 | 5.24 | 5.88 | 
SLIKTILASY | ≤ 4.36 | 7.01 | 5.98 | 5.34 | 5.76 | 
SNIQFNISK |  |  |  |  |  | pKd [1, 16]: 4.96; pKd [2, 16]: 5.31; pKd [3, 16]: 7.91; pKd [4, 16]: 5.76; pKd [5, 16]: 7.82
SRLFEDLVWK |  |  |  |  |  | pKd [1, 17]: ≤ 4.15; pKd [2, 17]: 6.18; pKd [3, 17]: 5.90; pKd [4, 17]: 5.07; pKd [5, 17]: 6.22
SSKIRWIVER |  |  |  |  |  | pKd [1, 9]: 6.41; pKd [4, 9]: 7.77
SSMLNIMNR |  |  |  |  |  | pKd [3, 13]: 7.98; pKd [4, 13]: 4.93; pKd [5, 13]: 8.13
SSSLDQTHIK |  |  |  |  |  | pKd [1, 18]: ≤ 4.59; pKd [2, 18]: 7.05; pKd [3, 18]: 8.31; pKd [4, 18]: 6.06; pKd [5, 18]: 6.07
STAWLCALGK |  |  |  |  |  | pKd [1, 8]: 5.03; pKd [2, 8]: 7.67; pKd [3, 8]: 9.46; pKd [4, 8]: 6.57; pKd [5, 8]: 8.32
SYTQVCDHR |  |  |  |  |  | pKd ([1]; source organism: Dengue virus 1 Nauru/West Pac/1974): 7.36
TAASAAQRR |  |  |  |  |  | pKd [5, 10]: 7.60
TAMAFHLTTR |  |  |  |  |  | pKd [1, 7]: 7.74; pKd [4, 7]: 8.04; pKd [5, 7]: 8.07
TAVAPSMTMR |  |  |  |  |  | pKd [5, 7]: 7.73
TSADLTVEK |  |  |  |  |  | pKd [3, 10]: 6.73; pKd [5, 10]: 7.81
TSIFAGHLK |  |  |  |  |  | pKd [3, 10]: 7.41; pKd [5, 10]: 8.37
TTRLENIMWK |  |  |  |  |  | pKd [3, 9]: 6.57
TTRLENVMWK |  |  |  |  |  | pKd ([3]; source organism: Dengue virus 4 Dominica/814669/1981): 6.23
VSIMIEEVMR |  |  |  |  |  | pKd [5, 13]: 6.69
VTCAMFTCKK |  |  |  |  |  | pKd [2, 7]: 7.06; pKd [3, 7]: 7.01
